Test results published in paper doi:10.1101/2020.07.21.215244 (bioRxiv, 2020).
Each block holds one binder with its values, some of them ahead of it.

Assays:
[1] = molecular target: vacant (non-translating) 70S ribosomes; assay: co-sedimentation
[2] = molecular target: T1, AscA (YecA), unfused full-length (E. coli, UniProt P0AD05 1-221); assay: MST
T1 sequence (looked up): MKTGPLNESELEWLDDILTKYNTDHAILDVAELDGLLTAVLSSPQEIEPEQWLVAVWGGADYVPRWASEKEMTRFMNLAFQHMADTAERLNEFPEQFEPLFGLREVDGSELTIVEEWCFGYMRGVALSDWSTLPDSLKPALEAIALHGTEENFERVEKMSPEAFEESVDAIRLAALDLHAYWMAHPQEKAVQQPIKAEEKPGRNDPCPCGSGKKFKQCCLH

stoichiometry N [1]: 1
B1: AscA (YecA), unfused full-length (natural protein)
chain: T1 sequence (looked up)

Kd [2]: ~150 nM
B2: SecB, fluorescently labelled (NT-647) (natural protein, E. coli, UniProt P0AG86 1-155, looked up)
chain: MSEQNNTEMTFQIQRIYTKDISFEAPNAPHVFQKDWQPEVKLDLDTASSQLADDVYEVVLRVTVTASLGEETAFLCEVQQGGIFSIAGIEGTQMAHCLGAYCPNILFPYARECITSMVSRGTFPQLNLAPVNFDALFMNYLQQQAGEGTEEHQDA
modifications: randomly labelled with NT-647 (NT-647-NHS labelling kit)
